T1: VapB29;VapC29 (Mycobacterium tuberculosis …, UniProt P9WJ37;P9WF79 1-75;1-133, |)
T1 sequence 1: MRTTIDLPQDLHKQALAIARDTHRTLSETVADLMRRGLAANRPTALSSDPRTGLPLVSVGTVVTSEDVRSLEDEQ
T1 sequence 2: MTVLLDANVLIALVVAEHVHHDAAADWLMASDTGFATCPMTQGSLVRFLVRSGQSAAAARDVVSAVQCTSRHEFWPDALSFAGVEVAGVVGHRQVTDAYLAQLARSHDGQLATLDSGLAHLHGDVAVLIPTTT

B1: VapBC39 heterodimer (complex)
chain 1: MRTTLQIDDDVLEDARSIARSEGKSVGAVISELARRSLRPVGIVEVDGFPVFDVPPDAPTVTSEDVVRALEDDV
chain 2: MTALLDVNVLIALGWPNHVHHAAAQRWFTQFSSNGWATTPITEAGYVRISSNRSVMQVSTTPAIAIAQLAAMTSLAGHTFWPDDVPLIVGSAGDRDAVSNHRRVTDCHLIALAARYGGRLVTFDAALADSASAGLVEVL
notes: VapB39 antitoxin of Mycobacterium tuberculosis, gene Rv2530a; as m9; VapC39 toxin of Mycobacterium tuberculosis, gene Rv2530c; as m10; also called Rv2530a/Rv2530c
B2: VapBC19 heterodimer (complex)
chain 1: MRTQVTLGKEELELLDRAAKASGASRSELIRRAIHRAYGTGSKQERLAALDHSRGSWRGRDFTGTEYVDAIRGDLNERLARLGLA
chain 2: MKLIDTTIAVDHLRGEPAAAVLLAELINNGEEIAASELVRFELLAGVRESELAALEAFFSAVVWTLVTEDIARIGGRLARRYRSSHRGIDDVDYLIAATAIVVDADLLTTNVRHFPMFPDLQPPY
notes: VapB19 antitoxin of Mycobacterium tuberculosis, gene Rv2547; as m3; VapC19 toxin of Mycobacterium tuberculosis, gene Rv2548; as m4; also called Rv2547/Rv2548
B3: VapBC29 heterodimer (complex)
chain 1: T1 sequence 1
chain 2: T1 sequence 2
notes: VapB29 antitoxin of Mycobacterium tuberculosis, gene Rv0616a; as m7; VapC29 toxin of Mycobacterium tuberculosis, gene Rv0617; as m8; also called Rv0616a/Rv0617
B4: VapBC1 heterodimer (complex)
chain 1: MATIQVRDLPEDVAETYRRRATAAGQSLQTYMRTKLIEGVRGRDKAEAIEILEQALASTASPGISRETIEASRRELRGG
chain 2: MDECVVDAAAVVDALAGKGASAIVLRGLLKESISNAPHLLDAEVGHALRRAVLSDEISEEQARAALDALPYLIDNRYPHSPRLIEYTWQLRHNVTFYDALYVALATALDVPLLTGDSRLAAAPGLPCEIKLVR
notes: VapB1 antitoxin of Mycobacterium tuberculosis, gene Rv0064a; as m1; VapC1 toxin of Mycobacterium tuberculosis, gene Rv0065; as m2; also called Rv0064a/Rv0065
B5: Oligo 5 Bind 3 (Mut. 3) (dsDNA)
DNA 1: GGTGAGCGTCGGCGCGAAAAAAACGATGCAGCGATGTTAGGATGAGGCGG
DNA 2: CCGCCTCATCCTAACATCGCTGCATCGTTTTTTTCGCGCCGACGCTCACC
B6: Oligo 5 Bind 5 (Mut. 5) (dsDNA)
DNA 1: GGTGAGCGTCGGCGCGCGCATCACGATGCAAAAAAATTAGGATGAGGCGG
DNA 2: CCGCCTCATCCTAATTTTTTTGCATCGTGATGCGCGCGCCGACGCTCACC

One data set deals with the molecule itself. Description: SEC.
Details: not given
As to B1, the “stoichiometry N” value is 4.9 VapBC heterodimers per complex.

For the molecule B2, the “stoichiometry N” value is 3.61 VapBC heterodimers per complex.

Turning to B3, the “stoichiometry N” value was 5 VapBC heterodimers per complex.

For the molecule B4, the “stoichiometry N” value is 5.6 VapBC heterodimers per complex.

The target in another data set is T1, VapB29;VapC29. Description: EMSA. Particulars: protein: recombinant;recombinant; tags: ;C-terminal His; label: 3' DIG-ddUTP; blunt. A general note: Mobility shift assays separate free from complexed probe on a gel.
As to B5, the binding result is listed as “no binding”.

With B6, the binding result is listed as “no binding”.

(Values after PMC6118392, “VapC proteins from Mycobacterium tuberculosis share ribonuclease sequence specificity but differ in regulation and toxicity” (PLoS ONE, 2018).)
